The values below come from PMC10187921, “A fully human neutralizing monoclonal antibody targeting a highly conserved epitope of the human cytomegalovirus glycoprotein B” (PLOS ONE, 2023).

Assay [1] deals with glycoprotein B of 42 Japanese clinical isolates (39 tested in MRC-5, 24 in ARPE-19 cells) (human cytomegalovirus).
The target in assay [2] is glycoprotein B of eight Japanese clinical isolates (2009-889, I88-55, I144-44, H12-42, H12-43, H1-10, H1-15, MDU-1) (human cytomegalovirus).
Assay [3] deals with T1, Human cytomegalovirus glycoprotein B (strain AD169) on infectious virions (Human cytomegalovirus, strain AD169, UniProt P06473). The assay can be described thus: cell-based or functional assay.
T1 sequence (P06473 32-906): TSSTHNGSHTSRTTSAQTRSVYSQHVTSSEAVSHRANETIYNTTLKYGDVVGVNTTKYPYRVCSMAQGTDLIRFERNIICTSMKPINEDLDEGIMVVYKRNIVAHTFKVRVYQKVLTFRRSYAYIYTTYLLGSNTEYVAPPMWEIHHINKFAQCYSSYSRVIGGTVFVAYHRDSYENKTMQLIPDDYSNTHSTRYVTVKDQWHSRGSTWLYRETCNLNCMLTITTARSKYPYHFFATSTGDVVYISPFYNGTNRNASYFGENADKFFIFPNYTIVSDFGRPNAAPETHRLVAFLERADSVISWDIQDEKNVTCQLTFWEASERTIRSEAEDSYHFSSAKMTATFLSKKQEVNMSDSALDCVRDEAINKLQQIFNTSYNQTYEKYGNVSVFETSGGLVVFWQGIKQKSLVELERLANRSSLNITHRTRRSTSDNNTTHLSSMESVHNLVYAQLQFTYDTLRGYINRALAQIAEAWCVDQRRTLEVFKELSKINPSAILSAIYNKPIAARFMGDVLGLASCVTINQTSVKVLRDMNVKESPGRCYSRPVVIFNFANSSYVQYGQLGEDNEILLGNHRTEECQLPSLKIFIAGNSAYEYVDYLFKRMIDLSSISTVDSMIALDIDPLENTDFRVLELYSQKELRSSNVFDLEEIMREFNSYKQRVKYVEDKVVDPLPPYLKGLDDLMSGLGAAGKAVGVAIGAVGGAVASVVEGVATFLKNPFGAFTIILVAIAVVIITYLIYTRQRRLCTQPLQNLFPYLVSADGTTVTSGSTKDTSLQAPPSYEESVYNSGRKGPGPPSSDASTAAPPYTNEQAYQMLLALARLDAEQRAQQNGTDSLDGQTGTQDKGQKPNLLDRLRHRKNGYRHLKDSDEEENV
The target in assay [4] is T2, Recombinant AD-1 protein from HCMV gB (strain AD169, amino acids 541-658), fused with glutathione … (Human cytomegalovirus, strain AD169, UniProt P06473).
T2 construct: antigenic domain 1 (AD-1) of human cytomegalovirus glycoprotein B, strain AD169, amino acids 541-658, UniProtKB P06473; The printed size of 40.7 kDa fits the fusion with GST still on it; no cleavage is told; Vector pGEX4T; also called recombinant antigenic domain 1; source: E. coli BL21 (DE3), solubilized with 0.5% sarkosyl, purified (SDS-PAGE, electroelution, dialysis against PBS)
T2 sequence (P06473 541-658): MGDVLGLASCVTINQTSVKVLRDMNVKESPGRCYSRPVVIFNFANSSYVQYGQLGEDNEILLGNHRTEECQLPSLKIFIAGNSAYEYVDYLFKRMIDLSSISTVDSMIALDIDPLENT
The assay can be described thus: SPR; Biacore T200; EV2038 (0.33 μg/mL) captured by anti-IgG (Fc) antibody on a CM5 chip; recombinant AD-1 injected as analyte; 1:1 binding model. The following applies: both partners purified. For orientation: Surface plasmon resonance follows binding to a sensor surface in real time, without labels.

Assay [5] deals with T1, Human cytomegalovirus glycoprotein B …. The assay can be described thus: SPR; Biacore T200; infectious virions (strain AD169, 1.6 × 10^8 plaque-forming units/mL) trapped by captured MSL-109 (anti-gH/gL); EV2038 injected as analyte; 1:1 binding model. As to conditions: one partner purified.

B1: EV2038 (IgG1 lambda), fully human neutralizing monoclonal antibody (antibody, V domains shown)
VH: QVQLQQWGAGLLKPSETLSLTCAVYGGSFSGYYWGWIRQPPGKGLEWIGEINHSGSANSNPSLKSRVTMSVDTSKNQFSLKVSSVTAADTAVYFCARVTRDLEWIPGDYYMDVWGKGTTVTVSS
VL: QSVLTQPPSASGTPGQRVSISCSGSLSNIGTNYVYWYQQLPGTAPKLLIFKNNQRPSGVPDRFSGSKSGTSASLAISGLRSEDEADYYCAAWDDSLNGYVFGTGTKVTVL
notes: heavy chain framework 1: only the Kabat CDRs are printed; heavy chain CDR1 (Kabat); heavy chain CDR2 (Kabat); heavy chain CDR3 (Kabat); constant region of human IgG1 heavy chain; light chain framework 1: only the Kabat CDRs are printed; light chain CDR1 (Kabat); light chain CDR2 (Kabat); light chain CDR3 (Kabat); constant region of a human lambda light chain; IgG1 lambda; the frameworks are not; …
By Kd is commonly meant the constant that tells how readily two partners part at equilibrium. What is called koff is the first-order rate constant of dissociation. Turning to B1, in assay [1], the IC50 of neutralisation of HCMV infection, plaque reduction assay, 24 clinical isolates in ARPE-19 cells fell in the range of 0.013 to 0.105 µg/mL; the IC50 of neutralisation of HCMV infection, plaque reduction assay, 39 clinical isolates in MRC-5 cells was in the range of 0.013 to 0.103 µg/mL; the IC90 of neutralisation of HCMV infection, plaque reduction assay, 24 clinical isolates in ARPE-19 cells is 0.208 to 1.03 µg/mL; the IC90 of neutralisation of HCMV infection, plaque reduction assay, 39 clinical isolates in MRC-5 cells was 0.215 to 0.901 µg/mL. In assay [2], this molecule returned an IC50 of inhibition of viral cell-to-cell spread, focus expansion assay, eight clinical isolates in ARPE-19 cells of 1 to 3.1 µg/mL and an IC90 of inhibition of viral cell-to-cell spread, focus expansion assay, eight clinical isolates in ARPE-19 cells of 13 to 19 µg/mL. In assay [3], the “IC50 of neutralisation of HCMV infection (strain AD169) after two passages of virus grown with mAbs, preliminary study” value fell in the range of 0.08 to 0.18 µg/mL and the “IC50 of neutralisation of HCMV infection (strain AD169) in MRC-5 cells, without anti-CMV agents” value is ~0.1 µg/mL. Moreover, in assay [4], the Kd is 5.73 nM and the koff stood at 0.000279 s⁻¹. Besides, in assay [5], binding was put at a Kd of 0.224 nM and the koff worked out at 0.00113 s⁻¹.
